Where no end group is shown, it is not given here. [ ]: non-standard residue; d: D form. The star is where a group is joined. FITC = O=C1OC2(c3ccc(O)cc3Oc3cc(O)ccc32)c2ccc(NC(=S)*)cc21; pT = C[C@@H](OP(=O)(O)O)[C@H](N)C(=O)O; pS = N[C@@H](COP(=O)(O)O)C(=O)O; Aβ = not defined here

As a reminder, the Kd is the concentration at which binding is half-saturated. Read a high Kd as weaker binding. As usually defined, the stoichiometry N is the number of molecules, sites or subunits per partner or assembly. One may read the EC50 as the concentration that produces a half-maximal response. Low values mean an effect from little substance, high ones a need for much substance.

In one assay the target is MpIBP_RIII1-4 (Marinomonas primoryensis ice-binding protein, Region III domains 1-4), truncated construct ending at N507 (Marinomonas primoryensis). Nature of the assay: ITC. (ITC needs no label: the signal is the heat of the interaction.)
The molecule AGAGD [AGAGD (unlabelled peptide)] showed a Kd of 1900 nM and a stoichiometry N of 1.
On to AGATD [AGATD (unlabelled peptide)], for which the Kd came out at 86 nM and the stoichiometry N came out at 1.
In the case of AGYTS [AGYTS (unlabelled peptide)], the Kd came out at 59 nM and the stoichiometry N turned out to be 1.
In the same order, the values of AGYTD [AGYTD (unlabelled peptide)] are 67 nM and 1.

For a further assay the target is unchanged. Kind of assay: fluorescence polarisation. On the technique in general: In fluorescence polarisation assays a small probe gives low polarisation when free and higher when bound to something large.
For {FITC}-AGYTS [FITC-AGYTS], the EC50 was found to be 30 nM.
Still for that read-out and setting: the same measure for {FITC}-AGCTD [FITC-AGCTD]: 23 nM; for {FITC-Aβ}-GPDSN (reading uncertain; also: printed as FITC-AβGPDSN) [FITC-AβGPDSN]: 270 nM; for {FITC}-AGAGY [FITC-AGAGY]: 4600 nM.
{FITC-Aβ}-DSTD (reading uncertain; also: printed as FITC-AβDSTD) [FITC-AβDSTD] came in with an EC50 of 110 nM.
Still for that read-out and setting: the same measure for {FITC}-AGAGI [FITC-AGAGI]: 4400 nM.
On the same count and under the same terms, as for {FITC}-IKARAS[pS]SPVILVGTHLD-OH [FITC-IKARAS(pS)…], the figure is 2700 nM.
Turning to {FITC-Aβ}-DSTPD (reading uncertain; also: printed as FITC-AβDSTPD) [FITC-AβDSTPD], the half-maximal effective concentration (EC50) is 27000 nM and the affinity is 26 µM.
{FITC}-RHKKLMFK[pT]EGPDSD-OH [FITC-RHKKLMFK(pT)EGPDSD]: the EC50 was 690 nM.
Same read-out and setting: as for {FITC-Aβ}-GPDSD (reading uncertain; also: printed as FITC-AβGPDSD) [FITC-AβGPDSD], the figure is 160 nM; as for {FITC}-AGATD [FITC-AGATD], 72 nM.
On to {FITC}-AGWTD [FITC-AGWTD], for which the EC50 came out at 23 nM.
{FITC}-AGAGD [FITC-AGAGD] showed an EC50 of 3200 nM.
Same read-out and setting: as for {FITC}-AGAGF [FITC-AGAGF], the figure is 7200 nM; as for {FITC}-AGYTD [FITC-AGYTD], 29 nM.
In turn, {FITC-Aβ}-GPDD (reading uncertain; also: printed as FITC-AβGPDD) [FITC-AβGPDD] showed a fold by which FITC-AβGPDSD binds stronger than FITC-AβGPDD of 20 fold.

Another assay has the same target. Kind of assay: fluorescence polarisation. This is another data set of the same source.
For {FITC}-AGASD [FITC-AGASD], the half-maximal effective concentration (EC50) is 310 nM.
The same measure, in the same setting: the same measure for {FITC}-AGAFD [FITC-AGAFD]: 180 nM; for {FITC}-AGATD [FITC-AGATD]: 89 nM.
{FITC}-AGAGD [FITC-AGAGD] displayed an EC50 of 1500 nM.
Same read-out and setting: the same measure for {FITC}-AGAPD [FITC-AGAPD]: 4600 nM; for {FITC}-AGAYD [FITC-AGAYD]: 170 nM.

The values above are taken from article doi:10.1101/2020.11.18.389114.
